Test results reported in the RNAGym collection of RNA variant scans (doi:10.7554/elife.80360).

B1: Hairpin Ribozyme (parent)
chain: GUCCUCUUUCACGUGCGCGUGAAAGAGAGAAGUGAACCAGAGAAACACACGUUGUGGUAUAUUACCUGGUA

Variants of: B1
Assay: self-cleavage, relative activity (ratio to wild type); higher = more cleavage; co-transcriptional

Point of comparison: GUCCUCUUUCACGUGCGCGUGAAAGAGAGAAGUGAACCAGAGAAACACACGUUGUGGUAUAUGAGCUGGUA [U63G C65G], self-cleavage 0.243. Against it:
- GUCCUCUUUCACGUGCGCGUGAAAGAGAGAAGUGAACCAGAGAAACACACGUUGUGGUAUAUGACGUGGUA [U63G C66G] — lower, 0.125
- GUCCUCUUUCACGUGCGCGUGAAAGAGAGAAGUGAACCAGAGAAACACACGUUGUGGUAUAUUUCUUGGUA [A64U C66U] — lower, 0.11
- GUCCUCUUUCACGUGCGCGUGAAAGAGAGAAGUGAACCAGAGAAACACACGUUGUGGUAUAUCACCCGGUA [U63C U67C] — lower, 0.148
- GUCCUCUUUCACGUGCGCGUGAAAGAGAGAAGUGAACCAGAGAAACACACGUUGUGGUAUAUCACCGGGUA [U63C U67G] — lower, 0.111
- GUCCUCUUUCACGUGCGCGUGAAAGAGAGAAGUGAACCAGAGAAACACACGUUGUGGUAUAUCACCAGGUA [U63C U67A] — lower, 0.21
- GUCCUCUUUCACGUGCGCGUGAAAGAGAGAAGUGAACCAGAGAAACACACGUUGUGGUAUAUUUCCUGGUC [A64U A71C] — higher, 0.494
- GUCCUCUUUCACGUGCGCGUGAAAGAGAGAAGUGAACCAGAGAAACACACGUUGUGGUAUAUAACCUGUUA [U63A G69U] — lower, 0.17
- GUCCUCUUUCACGUGCGCGUGAAAGAGAGAAGUGAACCAGAGAAACACACGUUGUGGUAUAUUCCCUGAUA [A64C G69A] — higher, 0.251
- GUCCUCUUUCACGUGCGCGUGAAAGAGAGAAGUGAACCAGAGAAACACACGUUGUGGUAUAUUCCCUGUUA [A64C G69U] — lower, 0.234
- GUCCUCUUUCACGUGCGCGUGAAAGAGAGAAGUGAACCAGAGAAACACACGUUGUGGUAUAUUAACCGGUA [C65A U67C] — lower, 0.228
- GUCCUCUUUCACGUGCGCGUGAAAGAGAGAAGUGAACCAGAGAAACACACGUUGUGGUAUAUUAACAGGUA [C65A U67A] — lower, 0.141
- GUCCUCUUUCACGUGCGCGUGAAAGAGAGAAGUGAACCAGAGAAACACACGUUGUGGUAUAUUUCCUUGUA [A64U G68U] — lower, 0.23
- GUCCUCUUUCACGUGCGCGUGAAAGAGAGAAGUGAACCAGAGAAACACACGUUGUGGUAUAUCAGCUGGUA [U63C C65G] — lower, 0.117
- GUCCUCUUUCACGUGCGCGUGAAAGAGAGAAGUGAACCAGAGAAACACACGUUGUGGUAUAUUCCCAGGUA [A64C U67A] — lower, 0.0615
- GUCCUCUUUCACGUGCGCGUGAAAGAGAGAAGUGAACCAGAGAAACACACGUUGUGGUAUAUAACUUGGUA [U63A C66U] — higher, 0.258
- GUCCUCUUUCACGUGCGCGUGAAAGAGAGAAGUGAACCAGAGAAACACACGUUGUGGUAUAGUACCUAGUA [U62G G68A] — higher, 0.263
- GUCCUCUUUCACGUGCGCGUGAAAGAGAGAAGUGAACCAGAGAAACACACGUUGUGGUAUAUUGCCUGGCA [A64G U70C] — higher, 0.61
- GUCCUCUUUCACGUGCGCGUGAAAGAGAGAAGUGAACCAGAGAAACACACGUUGUGGUAUAUGAACUGGUA [U63G C65A] — lower, 0.0995
- GUCCUCUUUCACGUGCGCGUGAAAGAGAGAAGUGAACCAGAGAAACACACGUUGUGGUAUAGUACCUGGCA [U62G U70C] — lower, 0.18
- GUCCUCUUUCACGUGCGCGUGAAAGAGAGAAGUGAACCAGAGAAACACACGUUGUGGUAUAGUACCUGGGA [U62G U70G] — higher, 0.352
- GUCCUCUUUCACGUGCGCGUGAAAGAGAGAAGUGAACCAGAGAAACACACGUUGUGGUAUAUUAAUUGGUA [C65A C66U] — higher, 0.508
- GUCCUCUUUCACGUGCGCGUGAAAGAGAGAAGUGAACCAGAGAAACACACGUUGUGGUAUAUCACCUGGUC [U63C A71C] — higher, 0.578
- GUCCUCUUUCACGUGCGCGUGAAAGAGAGAAGUGAACCAGAGAAACACACGUUGUGGUAUAUUUCCCGGUA [A64U U67C] — lower, 0.213
- GUCCUCUUUCACGUGCGCGUGAAAGAGAGAAGUGAACCAGAGAAACACACGUUGUGGUAUAUCACCUUGUA [U63C G68U] — higher, 0.351
- GUCCUCUUUCACGUGCGCGUGAAAGAGAGAAGUGAACCAGAGAAACACACGUUGUGGUAUAGUACCUGGUA [U62G] — lower, 0.179
- GUCCUCUUUCACGUGCGCGUGAAAGAGAGAAGUGAACCAGAGAAACACACGUUGUGGUAUAUUAACUGCUA [C65A G69C] — lower, 0.224
- GUCCUCUUUCACGUGCGCGUGAAAGAGAGAAGUGAACCAGAGAAACACACGUUGUGGUAUAUUAACUGUUA [C65A G69U] — lower, 0.235
- GUCCUCUUUCACGUGCGCGUGAAAGAGAGAAGUGAACCAGAGAAACACACGUUGUGGUAUAUUGCCUGCUA [A64G G69C] — lower, 0.142
- GUCCUCUUUCACGUGCGCGUGAAAGAGAGAAGUGAACCAGAGAAACACACGUUGUGGUAUAUUGCCUGAUA [A64G G69A] — lower, 0.121
- GUCCUCUUUCACGUGCGCGUGAAAGAGAGAAGUGAACCAGAGAAACACACGUUGUGGUAUAUUCCCUGGUU [A64C A71U] — the same, 0.243
- GUCCUCUUUCACGUGCGCGUGAAAGAGAGAAGUGAACCAGAGAAACACACGUUGUGGUAUAUUAGCUAGUA [C65G G68A] — higher, 0.254
- GUCCUCUUUCACGUGCGCGUGAAAGAGAGAAGUGAACCAGAGAAACACACGUUGUGGUAUAUGACCUGAUA [U63G G69A] — lower, 0.102
- GUCCUCUUUCACGUGCGCGUGAAAGAGAGAAGUGAACCAGAGAAACACACGUUGUGGUAUAUGACCUGUUA [U63G G69U] — lower, 0.169
- GUCCUCUUUCACGUGCGCGUGAAAGAGAGAAGUGAACCAGAGAAACACACGUUGUGGUAUAUUAGCUGGUA [C65G] — higher, 0.273
- GUCCUCUUUCACGUGCGCGUGAAAGAGAGAAGUGAACCAGAGAAACACACGUUGUGGUAUAUUAACUGGUA [C65A] — higher, 0.989
- GUCCUCUUUCACGUGCGCGUGAAAGAGAGAAGUGAACCAGAGAAACACACGUUGUGGUAUAUUUUCUGGUA [A64U C65U] — lower, 0.194
- GUCCUCUUUCACGUGCGCGUGAAAGAGAGAAGUGAACCAGAGAAACACACGUUGUGGUAUAUUUACUGGUA [A64U C65A] — lower, 0.187
